Data from the nanobody polyreactivity screen of Harvey et al. (2022).

Test: yeast display, Sf9 membrane polyspecificity reagent, FACS + sequencing; frameworks hold sequencing errors
Outline: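 In a synthetic yeast display library (Saccharomyces cerevisiae BJ5465), nanobody expression was induced with galactose for 36–48 hours. FACS gates were set low and high (top ~1%) using anti-HA fluorescence for expression and streptavidin fluorescence for binding of the Sf9 membrane reagent. Each polyreactivity label is drawn from the gate of origin.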

Sequence	polyreactivity (PSR sort gate)
QVQLVESGGGLVQAGGSLRLSCAASGSIFASYAMGWYRQAPGKERELVAAISRRAVRTYYADSVKGRFTISRDNAKNTVYLQMNSLKPEDTAVYYCNATRGQYVGRYYYWGQGTQVTVSS	high polyreactivity
QVQLVESGGGLVQAGGSLRLSCAASGSIFASYDMGWYRQAPGKERELVARITFNGGSTYYADSVKGRFTISRDNAKNTVYLQMNSLKPEETAVYYCNADYPWEYDYWGLGTQVTVSS	low polyreactivity
QVQLVESGGGLVQAGGSLRLSCAASGSIFATNAMGWYRQAPGKERELVASISSGGGSTYDADSVKGRFTLSRDNAKNTVYLQMNSLKPEDTAVYYCARRIGQGSRPYWLETWRYPYDYWGQGTQVTVSS	low polyreactivity
QVQLVESGGGLVQAGGSLRLSCAASGSIFAVYAMGWYRQAPGKERELVAASSTDYADSVKGRFTISRDNAKNTVYLQMNSLKPEDTAVYYCAKVGFGIPGGFYFWGQGTQVTVSS	low polyreactivity
QVQLVESGGGLVQAGGSLRLSCAASGSIFAVYAMGWYRQAPGKERELVASISRTGTTNYADSVKGRFTISRDNAKNTVYLQMNSLKPEDTAVYYCAADTWGLPDGYWYSEHPEFDYWGQGTQVTVSS	low polyreactivity
QVQLVESGGGLVQAGGSLRLSCAASGSIFAVYAMGWYRQAPGKERELVASISRTGTTNYADSVKGRFTISRDNAKNTVYLQMNSLKPEDTAVYYCNADAYLYYKYHWGFTFYQYEYWGQGTQVTVSS	low polyreactivity
QVQLVESGGGLVQAGGSLRLSCAASGSIFAVYAMGWYRQAPGKERELVASITNDGSTYADSVKGRFTISRDNAKNTVYLQINSQKPEDTAVYYCNADYLTYFTTFDYWGQGTQVTVSS	low polyreactivity
QVQLVESGGGLVQAGGSLRLSCAASGSIFAVYAMGWYRQAPGKERELVASITNDGSTYADSVKGRFTISRDNAKNTVYLQLNSLKPEDTAVYYCNADYLTYFTTFDYWGQGTQVTVSS	low polyreactivity
QVQLVESGGGLVQAGGSLRLSCAASGSIFAVYAMGWYRQAPGKERELVAVITRSGGSTYYADSVKGRFTISRDNAKNTVYLQMNSLKPEDTEVYYCAARSGYGYTRYEYWGQGTQVTVSS	high polyreactivity
QVQLVESGGGLVQAGGSLRLSCAASGSIFAVYTMGWYRQAPGKERELVAAINWSGARTYYADSVKGRFTISRDNEKNTVYLQMNSLKPEDSAVYYCAAESRLGVAYIYWGQGTQVTVSS	low polyreactivity
QVQLVESGGGLVQAGGSLRLSCAASGSIFAWYAMGWYRQAPGKERELVATITWSGGSTYYADSVKGRFTISRDNAKNTVYLQMNSLKPEDTAVYYCAAEVVGIWYDLWYQGDYWGQGTQVTVSS	low polyreactivity
QVQLVESGGGLVQAGGSLRLSCAASGSIFAWYGMGWYRQAPGKERELVAAISTAGSTNYADSVKGRFTISRDNAKNTVYLQMNSLKQEDSAVYYCAKKSSWYYPERFDYWGQGTQVNVSS	low polyreactivity
QVQLVESGGGLVQAGGSLRLSCAASGSIFAYAMGWDRQAPGKERELFAAISGGSTYYADSVKGRFTISRDNAKNTVYLQMNSLNPEDTAVYSCAADLDDERYYWGQGTQVTVSS	low polyreactivity
QVQLVESGGGLVQAGGSLRLSCAASGSIFAYNAMGRYRQAPGKEREYVAAISQSGGRTYYADSVKGRFTISRDTSKNTVYLQMNSLKPEDTAVYYCATDGIRLTRHRDYDYWGQGTQVTVSS	low polyreactivity
QVQLVESGGGLVQAGGSLRLSCAASGSIFAYNAMGWYRQAPGKEREFVAVITRSDDSTYADSVKGRFTISRDNAKNTVFLQMNRLKPEDTAVYDCAAQPFVIDGGYRGDYWGQGTQVTVSS	low polyreactivity
QVQLVESGGGLVQAGGSLRLSCAASGSIFAYNAMGWYRQAPGKERELVAAISAGGRTKYADSVKGRFTISRDNAKNTVYLQMNCLKPEDTAVYYCAAESYTGKYSWVWKWYDYWGQGTQVTVSS	low polyreactivity
QVQLVESGGGLVQAGGSLRLSCAASGSIFAYNAMGWYRQAPGKERELVAAITRSGVNTYYADSVKGRFTISRDNAKNTVYLQMNRLKPEDTAVYYCNAVFWGLQKWPQ	low polyreactivity
QVQLVESGGGLVQAGGSLRLSCAASGSIFAYNAMGWYRQAPGKERELVAGISSRGVSTYADSVKGRFTISRDNAKNTVYLQMNSLKPEDTAVYYCARGGYWGKRGRYDYWGQGTQVTVSS	low polyreactivity
QVQLVESGGGLVQAGGSLRLSCAASGSIFAYNGMGGYRQPPGKERELVAAISRRGGSTTYADSVKGRFTISRDNAKNTVYLQMNSLKPEDTAVYYCNTGAWSVRKMYYWGQGTQVTVSS	high polyreactivity
QVQLVESGGGLVQAGGSLRLSCAASGSIFAYYAMGWYRQAPGKEREFVAAISKRGGRTYYADSVKGRFTISRDNAKNTVYLQMNSLKPEDTAVYYCAAPWAYPRSGGDYWGQGTQVTVSS	high polyreactivity
QVQLVESGGGLVQAGGSLRLSCAASGSIFAYYAMGWYRQAPGKERELVAAISRRGGSTYYADSVKGRFTISRDNAKNTVYLQMNSLKPEDTAVYYCAARRSTQYKTGVDSWGQGTQVTVSS	high polyreactivity
QVQLVESGGGLVQAGGSLRLSCAASGSIFAYYAMGWYRQAPGKERELVAAISSSGGSTTYADSVKGRFTISRDNAKNTVYLQMNSLKPEDTAVYYCNAAWRRSRYYYWGQGTQVTVSS	high polyreactivity

Sequence	polyreactivity (PSR sort gate)
QVQLVESGGGLVQAGGSLRLSCAASGSIFAYYAMGWYRQAPGKESELVARITYSTDGTYYADSVKGRFTISRDNAKNTVYLQMNSLKPEDTAVYYCAVDTWWGFKRYKFDYWGQGTQVTVSS	low polyreactivity
QVQLVESGGGLVQAGGSLRLSCAASGSIFAYYSMGWYIQAPGKERELVAAISWSGGSTYYADSVKGRFTISRDNAKNTVYLQMNSLKPEDTAVYYCNVARSYSKMYWGQGTQVTVSS	high polyreactivity
QVQLVESGGGLVQAGGSLRLSCAASGSIFAYYTMGWYRQAPGKERELVARISSRGGRTYYADSVKGRFTISRDNAKNTVYLQMNSLKPEDTAVYYCNAGYSYRKYDYWGQGTQVTVSS	high polyreactivity
QVQLVESGGGLVQAGGSLRLSCAASGSIFAYYTMGWYRQAPGNERELVATISSGDITNYADSVKGRFTISRDNAKNTVYLQMNSLKPEDTAVYYCAAAELTSYYRTFIHQDYDYWGQGTQVTVSS	low polyreactivity
QVQLVESGGGLVQAGGSLRLSCAASGSIFAYYVMGWYRHAHGKERELVAAISARGGRTYYADSVKGRFTISRDNAKNTVYLQMNSLKQEDTAVYYCNALDQRYSQAVEYDYWGQGTQVTVSS	high polyreactivity
QVQLVESGGGLVQAGGSLRLSCAASGSIFCRYDMGWLDRRLGKKGSSLPLLLVLVTTRTTQTPVKGRFTISRDNAKNTVYLQIICLKPEDTAVYNCAADLRASGLKYEYWGQGTQVTVSS	low polyreactivity
QVQLVESGGGLVQAGGSLRLSCAASGSIFCYNTMGWYRQAPGKERELVAAITFSGGSTYYADSVKGRFTISRDNAKNTVYLKMNSLKPEDTAVYYCAAVFYSAVGYYYWGQGTQVTVSS	low polyreactivity
QVQLVESGGGLVQAGGSLRLSCAASGSIFDAYALGWYRQAPGKERELVADITFSAGRTYYADSVKGRFTITRDNAKNTVYLQMNSLKPEDTAVYYCAADSIVGDGYWSYYWGQGTQVTVSS	low polyreactivity
QVQLVESGGGLVQAGGSLRLSCAASGSIFDDNTMGWYRQAPGKERELVAAISSRGGSTYYADSVKGRFTISRDNAKNTVYLQMNSLKPEDTAVYYCATGPRWTWEGSRWKLEFDSWGQGTQVTVSS	low polyreactivity
QVQLVESGGGLVQAGGSLRLSCAASGSIFDDYAMGCYIHAPGKERELVAAITWNGGSTYADSVKGRFTISRDNAKNTVYLQMNSLKPEDTAVYYCAADYFVYWYYGYGYWGQGTQVTVSS	low polyreactivity
QVQLVESGGGLVQAGGSLRLSCAASGSIFDDYAMGWYRQAPGKERELVAAISDSGGSTSYADSVKGRFTISRDNAKNTVYFQMNSLKPEDTAVYYCNADRDDDYDYWGQGTQVTVSS	low polyreactivity
QVQLVESGGGLVQAGGSLRLSCAASGSIFDDYGMGWYRQAPGKEWEFVADITSRGTRTYYADSVKGRFTISRDNAKNTVYLQMNCLKPEDTAGYYFNTLVGVDFWLVDYWGQGTQVTLSS	low polyreactivity
QVQLVESGGGLVQAGGSLRLSCAASGSIFDFYAMGCYRQAPGKERELVAAISGSGGSTYYADSVKGRFTMSRDNAKNTVYLQMNSLKPEDTAVYYCSYYYWGQRTQVTVSS	low polyreactivity
QVQLVESGGGLVQAGGSLRLSCAASGSIFDFYAMGWYRQAAGKERELVASITGRGGSTYYADSVKGRFSISRDKAKNTVYFQMNSLKPEDTAVYYCAAATFGRGGFEYWGQGTKVTVSS	high polyreactivity
QVQLVESGGGLVQAGGSLRLSCAASGSIFDFYAMGWYRQAPGKEREFVAAITQSGASTYADSVKGRFTISRDNAKNTVYLQMNSLKPEDTAVYYCNADSGGRGAPTSTYDYWGQGSQVTVSS	low polyreactivity
QVQLVESGGGLVQAGGSLRLSCAASGSIFDGNAMGWYSQAPGKERELVAAITTDYRTYYADSVKGRFTISRDNAKNTFYLQMNSLKPEDTAVYYCNVVIYYFNSRTVYYDYDYWGQGTQVTVSS	high polyreactivity
QVQLVESGGGLVQAGGSLRLSCAASGSIFDGYAMGWYRQAPGKERELVASISSGGSTNYADSVKGRFTISRDNAKNTVYLQMNSLKPEDTAVYYCAAEWVWYKWEFEYWGQGTQVTVSS	high polyreactivity
QVQLVESGGGLVQAGGSLRLSCAASGSIFDGYAMGWYSQAPGKEREFVASIRFSTGRTYYADSVKGRFTISRDNAKNTVYFQMNSLKPEDTAVYYCNAPQGFVWRYSSWGPYDYWGQGTQVTVSS	high polyreactivity
QVQLVESGGGLVQAGGSLRLSCAASGSIFDIYAMGWYRQAPGKERELVAAISWNGGDTTYADSVKGRFTISRDNEKNTVYLQMNSLKPEYTAVYYCAADLGYWVADYYWGQGTQVTVSS	high polyreactivity
QVQLVESGGGLVQAGGSLRLSCAASGSIFDLNAMGWYRQAPGKERELVAAISKSGGSTYYADSVKGRFTISRDNAKNTVYLQMNSLKPEDTAVYYCAARYHEPGYSYKFWGQGTQVTVSS	low polyreactivity
QVQLVESGGGLVQAGGSLRLSCAASGSIFDLNVMGWYRQAPGKERELVAAITWSGGSTYYADSVKGRFTISRDNAKNTVYLQMNSLKPEDTAVDYCAADTASGDTLRPTLLYDYWGQGTQVTVSS	low polyreactivity
